Experimental data taken from patent US20260231968A1, “AN ECO-FRIENDLY, SUSTAINABLE FOOD PRESERVATIVE” (priority 2023, published 2026).

Key:
C. albicans [1] = test: Fungal growth in natural apple and beetroot juice; assay type: cell-based, Candida albicans; conditions: pH=7, 40 μM and 400 μM
Description: Natural beetroot and apple juice without preservatives, was diluted ×0.5 with PBS×1 to avoid high background absorbance. The juice was titrated to pH=7.4 with 1M NaOH, inoculated with C. albicans (1 colony/10 ml), treated with 40 μM and 400 μM His-psoriasin, and monitored with the same measuring program as the RPMI-MOPS experiments. In order to evaluate the effect of His-psoriasin on fungal growth in juice, natural apple and beetroot juices were inoculated without any preservatives with C. albicans. The samples were titrated to pH=7 and treated with 40 μM and 400 μM of recombinant His-psoriasin. The samples were placed in a 96 well-plate and absorbance at 600 nm was monitored vs. time.

[2] = system: microbial load of plant-based ground meat (soy protein); test: Microbial load of plant-based ground meat (soy protein) with psoriasin and/or nisin; assay type: cell-based; conditions: 0.65% w/w His-psoriasin; 1.5 mg nisin; 5 g soy protein in 7.5 ml PBS
Description: The ability of psoriasin to inhibit bacterial and fungal growth, with and without nisin was evaluated. Commercial plant-based ground meat (soy protein) was divided into 4 groups, each containing 5 grams of soy protein. The sample designated as “non-treated” contained 5 g of soy protein in 7.5 ml of PBS×1. The sample designated as “psoriasin” contained 5 g of soy protein in 7.5 ml of PBS×1 with 0.65% w/w of His-psoriasin. The sample designated as “nisin” contained 5 g of soy protein in 7.5 ml PBS×1 with 1.5 mg of nisin. The combined treatment group (“psoriasin+nisin”) contained 5 g of soy protein with both his-psoriasin and nisin at the same concentrations. The samples were incubated in […], and the microbial load was evaluated by seeding the different test groups on LB-agarose plates containing no antibiotics or on YAG-agarose plates with the antibiotics.

Candida albicans = test: Dose-response growth assay in 96 well plates, C. albicans in RPMI-MOPS (also zinc and pH variation); assay type: cell-based
Description: C. albicans were seeded on 10 cm plates of YAG-agarose for 1-2 days in a humidified incubator at 30° C. C. albicans colonies were used for 48 hours after their appearance before disposal.
(§1) RPMI-MOPS (RPMI Powder, 165 mM MOPS, and Pen/Strep solution (x100)) was inoculated with either 50,000 spores/ml of A. flavus, or 1 colony/10 ml of C. albicans. The inoculated RPMI-MOPS was poured into a Nunclone™ coated 96-well plate (100 μl per well), with the different treatments and controls. The 96-well plate was then incubated in a shaker/incubator plate-reader at 30° C. where the absorbance (600 nm) was monitored and measured every 10 minutes.
In Example 4, several ZnCl2 concentrations were added to 1 μM of His-psoriasin.
In Example 5, RPMI-MOPS was titrated to the different pH levels using 1M NaOH solution (RMPI-MOPS, initial pH ~4).
In order to evaluate the ability of recombinant His-psoriasin to inhibit the growth of Candida albicans, a single colony/10 ml was incubated in a RPMI-MOPS medium with variable concentrations of psoriasin added to each well. Fungi growth was monitored using an absorbance plate reader every 10 minutes at 600 nm. No apparent growth was measured in psoriasin concentrations higher than 300 nM for C. albicans (FIG. 2).
In order to test the effect of zinc ions on the ability of psoriasin to inhibit fungal growth, Candida albicans was incubated in a RPMI-MOPS medium in the presence of 1 μM psoriasin with variable concentrations of ZnCl2.
Candida albicans was incubated in a RPMI-MOPS medium in the presence of 10 μM His-psoriasin at variable pHs. […] Accordingly, effective anti-fungal activity of His-psoriasin can be obtained also at pH levels that are lower than pH=8.

Aspergillus flavus = test: Dose-response growth assay in 96 well plates, A. flavus in RPMI-MOPS; assay type: cell-based; conditions: A. flavus, 5,000 spores, absorbance 600 nm
Description: A. flavus A11 spores were seeded on 10 cm plates of YAG-agarose for 3-4 days in a humidified incubator at 30° C. After sporulation, fresh spores were collected with 5 ml DDW+0.2% Tween. Spores were then centrifuged at room temperatures (5 min, 4,000 RPM), and suspended in 5 ml DDW. The suspension was termed “A. flavus fresh stock”.
A. flavus fresh stock was diluted ×1000 using DDW, and the spores were counted using a cytometer to determine the stock spores' concentration. A. flavus fresh stock was used for one week after spore production before disposal.
as §1
In order to evaluate the ability of recombinant His-psoriasin to inhibit the growth of Aspergillus flavus, 5,000 spores were incubated in a RPMI-MPS medium with variable concentrations of psoriasin added to each well. Fungi growth was monitored using an absorbance plate reader every 10 minutes at 600 nm.

3T3 cells = test: Cell viability assay based on luminescence (cell-titer kit); conditions: 2-74 μM, 24 h
Description: To assess any potential deleterious effects of psoriasin, such as cytotoxicity, a cell viability assay was performed based on luminescence, in which decreased luminescence is indicative of reduced cell viability. Various concentrations of psoriasin ranging from 2-74 μM, were tested on 3T3 cells. Approximately 5000 cells were plated in each well of a 96 well-plate and following overnight incubation, psoriasin was added in the indicated concentration within the medium to the cells (performed in triplicate). Luminescence values were recorded after an additional 24 h using the cell-titer kit (Promega Ltd.) in a BioTek Synergy plate reader.

C. albicans [3] = test: Anti-fungal activity after lyophilization or oven drying; assay type: cell-based, Candida albicans
Description: The activity of psoriasin was assessed following lyophilization and oven drying. […] In particular, psoriasin was lyophilized and then tested for antimicrobial activity against C. albicans at concentrations of 0.5, 0.25, and 0.125 μM compared with psoriasin that had not been lyophilized.
In another experiment, psoriasin was oven-dried at 50° C. for 24 hours. Subsequently, psoriasin was tested for antimicrobial activity against C. albicans at concentrations of 0.5, 0.25, 0.125, 0.0625 μM compared with psoriasin that was not dried.

[4] = system: microbial sample isolated from soy protein; test: Growth of microbes isolated from soy protein in LB or RPMI; assay type: cell-based
Description: Psoriasin was applied to a microbial sample isolated from soy protein that was incubated in RPMI or LB medium, with no addition of external antibiotics. Liquid RPMI 1640 (5 ml) medium w/o Pen/strep antibiotics were inoculated with a colony that grew on an LB agarose plate from Example 8. The inoculated medium was incubated in a 37° C. shaker incubator overnight. Only the medium without antibiotics became turbid as a result of the endogenic bacterial growth. The isolated bacteria were used in dose-response experiments in RPMI 1640 and LB. Microbial growth was monitored in a 96-well plate by reading the absorbance at 600 nm every 10 minutes while adjusting the temperature to 37° C. In the rich LB medium, psoriasin was effective at a concentration of 50 μM (FIG. 9A). In RPMI, psoriasin was effective in concentrations below 1 μM (FIG. 9B).

B1: psoriasin: Recombinant human psoriasin (S100a7) containing a histidine tag, amino acid sequence SEQ ID NO: 11, expression vector pET-28a (protein, listed as Homo sapiens)
chain: MSNTQAERSIIGMIDMFHKYTRRDDKIEKPSLLTMMKENFPNFLSACDKKGTNYLADVFEKKDKNEDKKIDFSEFLSLLGDIATDYHKQSHGAAPCSGGSQ
fungal proliferation in juice (C. albicans [1]): not able to proliferate | total microbial count on LB-agarose plates containing no antibiotics [2]: inhibited microbial growth | total yeast/mold count on YAG plates with antibiotics [2]: inhibited fungal/yeast growth | C. albicans proliferation at variable pHs (Candida albicans; 10 μM His-psoriasin, RPMI-MOPS): prevent C. albicans proliferation at all the tested pH levels | psoriasin concentration above which no apparent growth was measured (Candida albicans; C. albicans single colony/10 ml, RPMI-MOPS, absorbance 600 nm): higher than 300 nM | ZnCl2 concentration above which the fungi retained their full ability to grow (Candida albicans; in the presence of 1 μM psoriasin): above 1.2 μM | psoriasin concentration above which no apparent growth was measured (Aspergillus flavus): higher than 375 nM | cell viability (luminescence) (3T3 cells): No change in luminescence was detected | activity against C. albicans after lyophilization vs not lyophilized (C. albicans [3]; 0.5, 0.25 and 0.125 μM): showed the same activity | activity against C. albicans after oven drying vs not dried (C. albicans [3]; oven-dried at 50° C for 24 hours, 0.5, 0.25, 0.125, 0.0625 μM): showed the same activity | effective concentration against isolated microbes ([4]; RPMI 1640, 37° C): below 1 μM | effective concentration against isolated microbes ([4]; rich LB medium, 37° C): 50 µM
